# Measurements published in the supplement of paper PMC9112550, “Optimization of the antimicrobial peptide Bac7 by deep mutational scanning” (BMC Biology, 2022).
# System: Escherichia coli TOP10
# Assay: shrunken log2 fold change of peptide-encoding DNA abundance (4.5 h post-induction vs induction); higher = less antimicrobial activity (less host growth inhibition)
# Settings: time post-induction: 4.5 h; library: site-saturation at positions 5, 18, 19, 20
# 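Also: peptides expressed intracellularly from a pBAD plasmid library in pooled LB shake-flask culture, induced with 0.3% L-arabinose, DNA abundance read by NGS, three biological replicates, DESeq2 with apeglm shrinkage.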
row,Sequence,shrunken log2 fold change
1,RRIRKRPPRLPRPRPRPEWRPRP,0.295
2,RRIRNRPPRLPRPRPRPWCIPRP,-0.573
3,RRIRGRPPRLPRPRPRPDSGPRP,0.128
4,RRIRPRPPRLPRPRPRPRWLPRP,0.299
5,RRIRYRPPRLPRPRPRPTKHPRP,-0.896
6,RRIRWRPPRLPRPRPRPPQEPRP,0.567
7,RRIRKRPPRLPRPRPRPYWMPRP,-0.19
8,RRIRARPPRLPRPRPRPYDDPRP,0.192
9,RRIRPRPPRLPRPRPRPMPRPRP,0.238
10,RRIRCRPPRLPRPRPRPLQFPRP,-0.0752
11,RRIRERPPRLPRPRPRPCKDPRP,-0.117
12,RRIRKRPPRLPRPRPRPTKEPRP,1.6
13,RRIRGRPPRLPRPRPRPTPRPRP,1.16
14,RRIRRRPPRLPRPRPRPSCVPRP,0.259
15,RRIRDRPPRLPRPRPRPPSFPRP,0.155
16,RRIRWRPPRLPRPRPRPGNQPRP,-0.225
17,RRIRLRPPRLPRPRPRPDVGPRP,-0.0266
18,RRIRPRPPRLPRPRPRPPFGPRP,0.432
19,RRIRERPPRLPRPRPRPFTIPRP,-0.162
20,RRIRRRPPRLPRPRPRPFKPPRP,0.174
21,RRIRSRPPRLPRPRPRPHMVPRP,-0.112
22,RRIRRRPPRLPRPRPRPCTGPRP,0.0659
23,RRIRDRPPRLPRPRPRPTLVPRP,0.196
24,RRIRPRPPRLPRPRPRPCDTPRP,-0.193
25,RRIRWRPPRLPRPRPRPSRPPRP,0.402

row,Sequence,shrunken log2 fold change
1,RRIRCRPPRLPRPRPRPIAMPRP,-0.0964
2,RRIRWRPPRLPRPRPRPAIMPRP,-0.211
3,RRIRYRPPRLPRPRPRPPQIPRP,-0.178
4,RRIRPRPPRLPRPRPRPCVGPRP,0.267
5,RRIRDRPPRLPRPRPRPHFPPRP,-0.0339
6,RRIRRRPPRLPRPRPRPMQFPRP,-0.058
7,RRIRARPPRLPRPRPRPSEPPRP,0.11
8,RRIRIRPPRLPRPRPRPVRNPRP,-0.0578
9,RRIRGRPPRLPRPRPRPCHGPRP,-0.355
10,RRIRERPPRLPRPRPRPQEIPRP,0.0133
11,RRIRYRPPRLPRPRPRPIHTPRP,-0.379
12,RRIRHRPPRLPRPRPRPGNNPRP,-0.00857
13,RRIRQRPPRLPRPRPRPSWIPRP,-0.225
14,RRIRQRPPRLPRPRPRPMKNPRP,-0.124
15,RRIRNRPPRLPRPRPRPPKMPRP,-0.168
16,RRIRARPPRLPRPRPRPYKKPRP,-0.0244
17,RRIRGRPPRLPRPRPRPPTDPRP,1.24
18,RRIRNRPPRLPRPRPRPDTSPRP,-0.0648
19,RRIRSRPPRLPRPRPRPYYQPRP,-0.608
20,RRIRSRPPRLPRPRPRPGRIPRP,-0.0494
21,RRIRWRPPRLPRPRPRPFGFPRP,0.321
22,RRIRTRPPRLPRPRPRPRLQPRP,0.123
23,RRIRWRPPRLPRPRPRPEMPPRP,0.364
24,RRIRKRPPRLPRPRPRPRRTPRP,0.443
25,RRIRVRPPRLPRPRPRPSPWPRP,0.021

row,Sequence,shrunken log2 fold change
1,RRIRFRPPRLPRPRPRPAPNPRP,0.408
2,RRIRSRPPRLPRPRPRPTINPRP,-0.229
3,RRIRCRPPRLPRPRPRPASVPRP,0.176
4,RRIRKRPPRLPRPRPRPEMKPRP,0.682
5,RRIRFRPPRLPRPRPRPAAQPRP,0.122
6,RRIRRRPPRLPRPRPRPILDPRP,0.0526
7,RRIRIRPPRLPRPRPRPQIAPRP,-0.0185
8,RRIRSRPPRLPRPRPRPLLAPRP,0.602
9,RRIRWRPPRLPRPRPRPGPYPRP,-0.161
10,RRIRCRPPRLPRPRPRPNIRPRP,-0.517
11,RRIRERPPRLPRPRPRPDVFPRP,-0.0359
12,RRIRMRPPRLPRPRPRPRSYPRP,0.068
13,RRIRDRPPRLPRPRPRPNYGPRP,-0.0075
14,RRIRDRPPRLPRPRPRPESIPRP,-0.0509
15,RRIRQRPPRLPRPRPRPCEMPRP,-0.00121
16,RRIRRRPPRLPRPRPRPMNWPRP,0.291
17,RRIRSRPPRLPRPRPRPARWPRP,0.224
18,RRIRMRPPRLPRPRPRPKQMPRP,1.25
19,RRIRLRPPRLPRPRPRPFAIPRP,0.0494
20,RRIRDRPPRLPRPRPRPISNPRP,-0.175
21,RRIRARPPRLPRPRPRPEYDPRP,0.695
22,RRIRFRPPRLPRPRPRPVDPPRP,-0.228
23,RRIRHRPPRLPRPRPRPPAIPRP,0.0959
24,RRIRERPPRLPRPRPRPFEMPRP,-0.536
25,RRIRERPPRLPRPRPRPAWVPRP,0.174
